The target of assay [1] is T1, human calcitonin receptor (human, UniProt P30988 25-474).
T1 construct: whole, on cells; also called hCTR; hCT
T1 sequence (looked up): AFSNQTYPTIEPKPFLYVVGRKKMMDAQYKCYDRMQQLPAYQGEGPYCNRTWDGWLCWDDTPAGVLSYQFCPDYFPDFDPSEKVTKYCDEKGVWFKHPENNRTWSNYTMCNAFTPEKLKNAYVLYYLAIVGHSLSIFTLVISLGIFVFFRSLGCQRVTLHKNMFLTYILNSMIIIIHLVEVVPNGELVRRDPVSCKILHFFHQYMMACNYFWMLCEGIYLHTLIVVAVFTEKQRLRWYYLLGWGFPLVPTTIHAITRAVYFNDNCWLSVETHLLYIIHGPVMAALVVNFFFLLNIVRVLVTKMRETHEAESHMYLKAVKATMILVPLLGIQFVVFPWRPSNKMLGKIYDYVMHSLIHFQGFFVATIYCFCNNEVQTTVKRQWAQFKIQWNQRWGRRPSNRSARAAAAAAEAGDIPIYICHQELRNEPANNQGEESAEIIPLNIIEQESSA
Nature of the assay: ratio of IC50 at human calcitonin receptor to IC50 at human amylin receptor (SPA competition assays). In a few lines: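 Competition binding by SPA uses membrane preparations (35 ng/μL final) in pH 7.4 Hepes buffer with 1 mM CaCl2 and 5 mM MgCl₂. Incubation lasts 120 min at 25° C, and IC₅₀ comes from one-site fitting.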

Assay [2] concerns the target T1, human calcitonin receptor. Put plainly: SPA competition against 125I-calcitonin, membranes of BHK cells with human calcitonin receptor (Assay VII). A digest of the protocol: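 BHK hCTR membranes 35 ng/μL + SPA beads 0.05 mg/well; buffer 50 mM Hepes pH 7.4, 1 mM CaCl2, 5 mM MgCl₂, 0.1% OA, 0.02% Tween20. 120 min, 25° C., shaking. Scintillation count; IC50 by one-site binding competition.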

Numbered stars: 1 amine (or outer) side, 2 acyl side, 3 side chain; on linkers, the order of the positions; unused ones are H or OH. Bridge positions count the residues as written; N and C are the ends. Side chains are listed from the residue outwards. Ends that are not written are not given here. * marks the point of attachment. C20 diacid = O=C(O)CCCCCCCCCCCCCCCCCCC(=O)*; γGlu = O=C(O)[C@H](CCC(=O)[*:2])N[*:1]

As a reminder, the IC50 is the midpoint of a concentration-inhibition curve.

B1: N^ε1-[(4S)-4-carboxy-4-(19-carboxynonadecanoylamino)butanoyl]-[Asp14,Arg17,Pro21,Pro27,Pro34,Arg35]-h-amylin (peptide)
peptide: K([γGlu-C20 diacid])CNTATCATQRLADFLRHSSPNFGAIPSSTNVGPRTY-NH2
modifications: disulfide 2-7; N-terminus assumed
SMILES: CC[C@H](C)[C@H](NC(=O)[C@H](C)NC(=O)CNC(=O)[C@H](Cc1ccccc1)NC(=O)[C@H](CC(N)=O)NC(=O)[C@@H]1CCCN1C(=O)[C@H](CO)NC(=O)[C@H](CO)NC(=O)[C@H](Cc1c[nH]cn1)NC(=O)[C@H](CCCNC(=N)N)NC(=O)[C@H](CC(C)C)NC(=O)[C@H](Cc1ccccc1)NC(=O)[C@H](CC(=O)O)NC(=O)[C@H](C)NC(=O)[C@H](CC(C)C)NC(=O)[C@H](CCCNC(=N)N)NC(=O)[C@H](CCC(N)=O)NC(=O)[C@@H](NC(=O)[C@H](C)NC(=O)[C@@H]1CSSC[C@H](NC(=O)[C@@H](N)CCCCNC(=O)CC[C@H](NC(=O)CCCCCCCCCCCCCCCCCCC(=O)O)C(=O)O)C(=O)N[C@@H](CC(N)=O)C(=O)N[C@@H]([C@@H](C)O)C(=O)N[C@@H](C)C(=O)N[C@@H]([C@@H](C)O)C(=O)N1)[C@@H](C)O)C(=O)N1CCC[C@H]1C(=O)N[C@@H](CO)C(=O)N[C@@H](CO)C(=O)N[C@H](C(=O)N[C@@H](CC(N)=O)C(=O)N[C@H](C(=O)NCC(=O)N1CCC[C@H]1C(=O)N[C@@H](CCCNC(=N)N)C(=O)N[C@H](C(=O)N[C@@H](Cc1ccc(O)cc1)C(N)=O)[C@@H](C)O)C(C)C)[C@@H](C)O
B1: in assay [1], the “Ratio hCT/hAmylin binding” value came out at 151. The 50% inhibitory concentration (IC50) in assay [2] was determined as 42.5 nM.

B2: N^ε1-[(4S)-4-carboxy-4-(19-carboxynonadecanoylamino)butanoyl]-[Asp14,Arg17,Pro21,Pro27,Pro34,Glu35]-h-amylin (peptide)
peptide: K([γGlu-C20 diacid])CNTATCATQRLADFLRHSSPNFGAIPSSTNVGPETY-NH2
modifications: disulfide 2-7; N-terminus assumed
SMILES: CC[C@H](C)[C@H](NC(=O)[C@H](C)NC(=O)CNC(=O)[C@H](Cc1ccccc1)NC(=O)[C@H](CC(N)=O)NC(=O)[C@@H]1CCCN1C(=O)[C@H](CO)NC(=O)[C@H](CO)NC(=O)[C@H](Cc1c[nH]cn1)NC(=O)[C@H](CCCNC(=N)N)NC(=O)[C@H](CC(C)C)NC(=O)[C@H](Cc1ccccc1)NC(=O)[C@H](CC(=O)O)NC(=O)[C@H](C)NC(=O)[C@H](CC(C)C)NC(=O)[C@H](CCCNC(=N)N)NC(=O)[C@H](CCC(N)=O)NC(=O)[C@@H](NC(=O)[C@H](C)NC(=O)[C@@H]1CSSC[C@H](NC(=O)[C@@H](N)CCCCNC(=O)CC[C@H](NC(=O)CCCCCCCCCCCCCCCCCCC(=O)O)C(=O)O)C(=O)N[C@@H](CC(N)=O)C(=O)N[C@@H]([C@@H](C)O)C(=O)N[C@@H](C)C(=O)N[C@@H]([C@@H](C)O)C(=O)N1)[C@@H](C)O)C(=O)N1CCC[C@H]1C(=O)N[C@@H](CO)C(=O)N[C@@H](CO)C(=O)N[C@H](C(=O)N[C@@H](CC(N)=O)C(=O)N[C@H](C(=O)NCC(=O)N1CCC[C@H]1C(=O)N[C@@H](CCC(=O)O)C(=O)N[C@H](C(=O)N[C@@H](Cc1ccc(O)cc1)C(N)=O)[C@@H](C)O)C(C)C)[C@@H](C)O
Turning to B2, the “Ratio hCT/hAmylin binding” value in assay [1] came to 16.7. The half-maximal inhibitory concentration (IC50) in assay [2] was found to be 3.27 nM.

B3: N^ε1-[(4S)-4-carboxy-4-(19-carboxynonadecanoylamino)butanoyl]-[His14,Arg17,Pro21,Pro27,Pro31,Pro34]-h-amylin (peptide)
peptide: K([γGlu-C20 diacid])CNTATCATQRLAHFLRHSSPNFGAIPSSTPVGPNTY-NH2
modifications: disulfide 2-7; N-terminus assumed
SMILES: CC[C@H](C)[C@H](NC(=O)[C@H](C)NC(=O)CNC(=O)[C@H](Cc1ccccc1)NC(=O)[C@H](CC(N)=O)NC(=O)[C@@H]1CCCN1C(=O)[C@H](CO)NC(=O)[C@H](CO)NC(=O)[C@H](Cc1c[nH]cn1)NC(=O)[C@H](CCCNC(=N)N)NC(=O)[C@H](CC(C)C)NC(=O)[C@H](Cc1ccccc1)NC(=O)[C@H](Cc1c[nH]cn1)NC(=O)[C@H](C)NC(=O)[C@H](CC(C)C)NC(=O)[C@H](CCCNC(=N)N)NC(=O)[C@H](CCC(N)=O)NC(=O)[C@@H](NC(=O)[C@H](C)NC(=O)[C@@H]1CSSC[C@H](NC(=O)[C@@H](N)CCCCNC(=O)CC[C@H](NC(=O)CCCCCCCCCCCCCCCCCCC(=O)O)C(=O)O)C(=O)N[C@@H](CC(N)=O)C(=O)N[C@@H]([C@@H](C)O)C(=O)N[C@@H](C)C(=O)N[C@@H]([C@@H](C)O)C(=O)N1)[C@@H](C)O)C(=O)N1CCC[C@H]1C(=O)N[C@@H](CO)C(=O)N[C@@H](CO)C(=O)N[C@H](C(=O)N1CCC[C@H]1C(=O)N[C@H](C(=O)NCC(=O)N1CCC[C@H]1C(=O)N[C@@H](CC(N)=O)C(=O)N[C@H](C(=O)N[C@@H](Cc1ccc(O)cc1)C(N)=O)[C@@H](C)O)C(C)C)[C@@H](C)O
As for B3, in assay [1], the “Ratio hCT/hAmylin binding” value stood at 24.8. Further, in assay [2], the half-inhibitory concentration (IC50) is 2.04 nM.
As to K([γGlu-C20 diacid])CNTATCATQRLAEFLRHSSPNFGAIPSSTNVGPHTY-NH2 (disulfide 2-7), the “Ratio hCT/hAmylin binding” value in assay [1] was found to be 21.2. In assay [2], the half-maximal inhibitory concentration (IC50) is 3.8 nM.

B4: N^ε1-[(4S)-4-carboxy-4-(19-carboxynonadecanoylamino)butanoyl]-[Glu14,Arg17,Pro21,Pro27,His35]-h-amylin (peptide)
peptide: K([γGlu-C20 diacid])CNTATCATQRLAEFLRHSSPNFGAIPSSTNVGSHTY-NH2
modifications: disulfide 2-7; N-terminus assumed
SMILES: CC[C@H](C)[C@H](NC(=O)[C@H](C)NC(=O)CNC(=O)[C@H](Cc1ccccc1)NC(=O)[C@H](CC(N)=O)NC(=O)[C@@H]1CCCN1C(=O)[C@H](CO)NC(=O)[C@H](CO)NC(=O)[C@H](Cc1c[nH]cn1)NC(=O)[C@H](CCCNC(=N)N)NC(=O)[C@H](CC(C)C)NC(=O)[C@H](Cc1ccccc1)NC(=O)[C@H](CCC(=O)O)NC(=O)[C@H](C)NC(=O)[C@H](CC(C)C)NC(=O)[C@H](CCCNC(=N)N)NC(=O)[C@H](CCC(N)=O)NC(=O)[C@@H](NC(=O)[C@H](C)NC(=O)[C@@H]1CSSC[C@H](NC(=O)[C@@H](N)CCCCNC(=O)CC[C@H](NC(=O)CCCCCCCCCCCCCCCCCCC(=O)O)C(=O)O)C(=O)N[C@@H](CC(N)=O)C(=O)N[C@@H]([C@@H](C)O)C(=O)N[C@@H](C)C(=O)N[C@@H]([C@@H](C)O)C(=O)N1)[C@@H](C)O)C(=O)N1CCC[C@H]1C(=O)N[C@@H](CO)C(=O)N[C@@H](CO)C(=O)N[C@H](C(=O)N[C@@H](CC(N)=O)C(=O)N[C@H](C(=O)NCC(=O)N[C@@H](CO)C(=O)N[C@@H](Cc1c[nH]cn1)C(=O)N[C@H](C(=O)N[C@@H](Cc1ccc(O)cc1)C(N)=O)[C@@H](C)O)C(C)C)[C@@H](C)O
On to B4, for which the “Ratio hCT/hAmylin binding” value in assay [1] stood at 26.4. Moreover, the IC50 in assay [2] turned out to be 26.1 nM.

The values are drawn from US20140087995A1 (published 2014).
